These results are taken from US20160130329A1 (UNIVERSITY OF CHICAGO, published 2016).

For test [1], the target named is T1, H3K4me3 peptide (also: biotinylated, site not given here).
T1 peptide: ART[Lys(Me3)]QTARKSTGGYCD
Put plainly: quantitative peptide IP assay.

Test [2] addresses T1, H3K4me3 peptide. Put plainly: quantitative peptide IP assay, biotinylated Fab on streptavidin beads, flow cytometry. Background: A flow cytometer gives signals particle by particle.
Test [3] deals with T2, H3K56me3 peptide (K(me3) at H3 K56; K(biotin) near the C-terminus, as printed: LREIRRYQ-K(me3)-STELLIRGG-K(biotin)-D).
T2 peptide: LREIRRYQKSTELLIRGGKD
Put plainly: peptide IP assay (FIG. 8B).

For test [4], the target named is T3, H3K36me3 peptide (K(me3) at H3 K36; K(biotin) near the C-terminus, as printed: SAPATGGVK-K(me3)-PHRYRPGG-K(biotin)-D).
T3 peptide: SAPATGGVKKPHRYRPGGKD
Put plainly: peptide IP assay (FIG. 8B).

Test [5] deals with T1, H3K4me3 peptide. Put plainly: peptide IP assay (antibody on beads, flow cytometry).
For test [6], the target named is T4, H4K20me3 peptide (trimethyl-lysine at K20 (histone H4 numbering); biotinylated through the GYCD tag).
T4 peptide: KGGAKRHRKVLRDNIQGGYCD
The description is as above.

For test [7], the target named is T1, H3K4me3 peptide. The test is described as above.
Test [8] concerns the target T5, H3K27me3 peptide (trimethyl-lysine at K27 (histone H3 numbering); biotinylated through the GYCD tag).
T5 peptide: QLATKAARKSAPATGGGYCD
Put plainly: phage ELISA [A]. Background: ELISA stands for enzyme-linked immunosorbent assay.

In test [9] the target is T6, cross-linked chromatin from HEK293T cells.
T6 construct: A protein-DNA complex
Put plainly: cross-linked ChIP from HEK293T cells followed by qPCR. In general terms: In qPCR the cycle at which signal appears reflects the starting amount.

The target of test [10] is T2, H3K56me3 peptide. Put plainly: peptide IP assay (antibody on beads, flow cytometry).
Test [11] concerns the target T3, H3K36me3 peptide. The description is as above.
Test [12] deals with T4, H4K20me3 peptide. Put plainly: phage ELISA [B].
The target in test [13] is T5, H3K27me3 peptide. Put plainly: phage ELISA [B].
Test [14] deals with T4, H4K20me3 peptide. Put plainly: phage ELISA [A].
Test [15] concerns the target T4, H4K20me3 peptide. Put plainly: yeast display, flow cytometry [A].
For test [16], the target named is T1, H3K4me3 peptide. Put plainly: yeast display, flow cytometry [A].
Test [17] addresses T5, H3K27me3 peptide. Put plainly: yeast display, flow cytometry [A].
Test [18] addresses T1, H3K4me3 peptide. Put plainly: phage ELISA [A].
Test [19] concerns the target T3, H3K36me3 peptide. Put plainly: yeast display, flow cytometry [B].
Test [20] has as its target T1, H3K4me3 peptide. Put plainly: yeast display, flow cytometry [B].
In test [21] the target is T5, H3K27me3 peptide. Put plainly: yeast display, flow cytometry [B].
The target in test [22] is T1, H3K4me3 peptide. Put plainly: yeast display of the scFv, peptide titration, flow cytometry.
The target of test [23] is T1, H3K4me3 peptide. Described as above.
Test [24] deals with T3, H3K36me3 peptide. Put plainly: phage ELISA.

Numbering of substitutions follows the chain as printed. Where no end group is shown, it is not given here. [ ]: non-standard residue; d: D form. Lys(Me3) = C[N+](C)(C)CCCC[C@H](N)C(=O)O

B1: 304M3-A (Fab, V domains shown)
VH: EVQLVETGGGVVQPGRSLRLSCTASGFTFRDYWMSWVRQAPGKGLEWVADINQDGSALYYVDAVKGRFTISRDNAKSSLYLQMNSLGAEDTAVYYCARDLIYGFGWHFDLWGRGTLVTVSS
VL: not shown
notes: Produced and characterized in the same manner as 309M3-A: biotinylated Fab with a biotinylation acceptor peptide at the C-terminus of the heavy chain; also called recombinant anti-H3K4me3 antibody; 304M3-A antibody
On to B1, for which the “fold increase in affinity compared with the lead antibody (scFv 4-5)” value with H3K4me3 peptide [1] amounted to 360 fold. Moreover, the values for the Kd with H3K4me3 peptide [2] and in the test with H3K4me3 peptide [5] were 16 nM and 20 nM, respectively. The binding result with H3K56me3 peptide [3] and with H3K36me3 peptide [4] was “no binding” each time.

B2: 309M3-A (Fab, V domains shown)
VH: B1 VH with Y32H, Q53G, G55S, S56I, A57L, L58E, L100F, I101H, Y102R, F104Y
VL: not shown
notes: also called recombinant anti-H3K9me3 antibody; 309M3-A antibody
Take B2: the binding result is on record as “no binding (tested: 500 nM)” with H4K20me3 peptide [6]; “no binding (tested: 500 nM)” in the test with H3K4me3 peptide [7]; “no binding (tested: 100 nM peptide)” with H3K27me3 peptide [8]; “no binding (tested: 500 nM)” with H3K56me3 peptide [10]; “no binding (tested: 500 nM)” with H3K36me3 peptide [11]. Further, in [9], the “ChIP enrichment relative to pAb-056-050 (lot A93-0042)” value was about 3 fold.

B3: 4H1 (scFv)
scFv: EVQLVETGGGVVQPGRSLRLSCTASGFTFRDYWMSWVRQAPGKGLEWVADIGEHGSFSYYLDAVKGRFTISRDNAKSSLYLQMNSLGAEDTAVYYCARNFSRGYGWHFDLWGRGTLVTVSSSYVLTQPPSVSVAPGQTARITCGGTNIGDISVHWYQQRPGQAPLVVVYDDSDRPSGIPERFSGSNSGNTATLTISRVEAGDEADYYCQVWDDSINAYVFGTGTKVTVL
Turning to B3, the binding result in the test with H4K20me3 peptide [12] and with H3K27me3 peptide [13] was “no binding (tested: 100 nM peptide)” in each case.

B4: 4H2 (scFv)
scFv: B3 scFv with G52S, E53K, H54D, F57A, L61V, N99D, S101V, R102S
As for B4, the binding result in the test with H4K20me3 peptide [12] and in the test with H3K27me3 peptide [13] was “no binding (tested: 100 nM peptide)” throughout.

B5: 9H3 (scFv)
scFv: EVQLVETGGGVVQPGRSLRLSCTASGFTFRDYWMSWVRQAPGKGLEWVADISQDGESRYYVDAVKGRFTISRDNAKSSLYLQMNSLGAEDTAVYYCARDLLSGYGWHFDLWGRGTLVTVSSSYVLTQPPSVSVAPGQTARITCGGTNIGDISVHWYQQRPGQAPLVVVYDDSDRPSGIPERFSGSNSGNTATLTISRVEAGDEADYYCQVWDDSINAYVFGTGTKVTVL
B5: the binding result in the test with H4K20me3 peptide [14] is “no binding (tested: 100 nM peptide)”.

B6: 36H3 (scFv)
scFv: B3 scFv with I51L, G52N, E53K, H54D, S56K, F57Y, S58A, N99D, S101V, Y104S
For B6, the binding result with H4K20me3 peptide [15], with H3K4me3 peptide [16] and in the test with H3K27me3 peptide [17] was “no binding (tested: 500 nM)” in each case.

B7: 9H2 (scFv)
scFv: B5 scFv with Y32H, S52D, D54E, E56R, S57W, R58G, V61L, L100F, S102V, Y104F
Take B7: the binding result with H4K20me3 peptide [14], with H3K4me3 peptide [18] and in the test with H3K27me3 peptide [8] was “no binding (tested: 100 nM peptide)” throughout.

B8: 20H1 (scFv)
scFv: EVQLVETGGGVVQPGRSLRLSCTASGFTFRDNWMSWVRQAPGKGLEWVADINQNGRYFYYIDAVKGRFTISRDNAKSSLYLQMNSLGAEDTAVYYCARAFQRGRGWHFDLWGRGTLVTVSSSYVLTQPPSVSVAPGQTARITCGGTNIGDISVHWYQQRPGQAPLVVVYDDSDRPSGIPERFSGSNSGNTATLTISRVEAGDEADYYCQVWDDSINAYVFGTGTKVTVL
With B8, the binding result in the test with H3K36me3 peptide [19], with H3K4me3 peptide [20] and with H3K27me3 peptide [21] was “no binding (tested: 500 nM)” in each case.

B9: 20H3 (scFv)
scFv: B3 scFv with G52S, E53Q, H54E, F57W, S58A, N99D, S101P, R102H, Y104S
As for B9, the binding result in the test with H3K36me3 peptide [19] and with H3K27me3 peptide [21] was “no binding (tested: 500 nM)” throughout.

B10: scFv 4-5 (scFv)
scFv: EVQLVETGGGVVQPGRSLRLSCTASGFTFRDYWMSWVRQAPGKGLEWVADIKQDGSDKYYVDAVKGRFTISRDNAKSSLYLQMNSLGAEDTAVYYCARDFSRGSGWHFDLWGRGTLVTVSSGILGSGGGGSGGGGSGGGGSSYVLTQPPSVSVAPGQTARITCGGTNIGDISVHWYQQRPGQAPLVVVYDDSDRPSGIPERFSGSNSGNTATLTISRVEAGDEADYYCQVWDDSINAYVFGTGTKVTVL
notes: also called lead antibody; scFv 4-5 polypeptide
Take B10: the dissociation constant Kd with H3K4me3 peptide [22] and with H3K4me3 peptide [23] was 5100 nM in each case.

B11: 27F40 (scFv)
scFv: EVQLVETGGGVVQPGRSLRLSCTASGFTFRDYWMSWVRQAPGKGLEWVADINPDGITRYYIDAVKGRFTISRDNAKSSLYLQMNSLGAEDTAVYYCAREFTNVYGWHFDLWGRGTLVTVSSSYVLTQPPSVSVAPGQTARITCGGTNISNTYVHWYQQRPGQAPLVVVYSSPARPSGIPERFSGSNSGNTATLTISRVEAGDEADYYCQVWDDSINAYVFGTGTKVTVL
For B11, the binding result with H3K36me3 peptide [24] is reported as “no binding (tested: 100 nM peptide)”.

B12: 27F52 (scFv)
scFv: B11 scFv with T101N, S149N, N150D, P172D, A173P
For B12, the binding result in the test with H3K36me3 peptide [24] was “no binding (tested: 100 nM peptide)”.

B13: 27F12 (scFv)
scFv: B11 scFv with V103A, S149I, N150S, S170A, S171H, P172S, A173D
In the case of B13, the binding result with H3K36me3 peptide [24] is listed as “no binding (tested: 100 nM peptide)”.

The term Kd denotes the constant that tells how readily two partners part at equilibrium.
